The values that follow are results of earlier work, collected in patent EP4471063A1, “ANTIBODY AGAINST HER3, CONJUGATE AND USE THEREOF” (priority 2022, dated 2023).

The conditions of data set [1]: multicenter clinical studies.
The mark [2] stands for this setting: once every three weeks, five administrations, 0, 3, 10, 30 mg/kg.

Consider Patritumab Deruxtecan, for which the “thrombocytopenia as treatment emergent adverse event (TEAE)” value in data set [1] is 30%. For the same substance, the body weight result (at all doses) is recorded as “no significant abnormality”. The toxic target organs result (cynomolgus monkey, in vivo) was “thymus, bone marrow, and skin”. Under setting [2], the “dose at which a decrease in reticulocytes, lymphocytes, and platelets was observed” value is not below 3 mg/kg; the “dose at which transferases increased” value was not below 10 mg/kg.
